Test results published in patent US20250154264A1 (GENOVAC ANTIBODY DISCOVERY, published 2025).

B1: BVO-A-9F7-A10 (antibody, V domains shown)
VH: QVQLQQWGAGLLKPSETLSLTCAVYGGSFSSSYWNWIRQPPGKGLEWIGEVNHSGSTNYNPSLKSRVTISLDTSKNQFSLKLSSVTAADTAVYYCARSPRSGRIVGAVFDYWGQGTLVTVSS
VL: SYVLTQPPSVSVAPGQTARITCGGNNIGPKSVHWYQQKPGQAPVLVVYDDSDRPSGIPERFSGSNSGNTATLTISRVEAGDEADYYCQVWDSSNDHVVFGGGTKLTVL
notes: Tested as OmniRat hybridoma supernatant and detected with goat anti-rat secondary antibody; also called BVO-A-9E7-A10
B2: BVO-B-1H7-E3 (antibody, V domains shown)
VH: QLQLQESGPGLVKPSETLSLTCTVSGGSISSRSYYWGWIRQPPGKGLEWIGNIYYSGSAFYNPSLKSRVTISVDTSKNQFSLKLSSVTAADTAVYYCARWDNWDVGAFDIWGQGTMVTVSS
VL: QSALTQPPSASGSPGQSVTISCTGTSSDVGGYNYVSWYQQHPGKAPKLMIYEVSKRPSGVPDRFSGSKSGNTASLTVSGLQAEDEADYYCTSFAGSNNWVFGGGTKLTVL
notes: Tested as OmniRat hybridoma supernatant and detected with goat anti-rat secondary antibody

How the values were obtained:
[1] = biological target: T1, human ALK1 (Activin A receptor like type 1), N-terminally tagged, on transiently transfected cells (human, UniProt P37023 22-503); test: flow cytometry, hybridoma supernatant on transiently transfected cells, PE goat anti-rat secondary
T1 construct: also called ALK1 of human; ACVRL1; not shown: N-terminal tag used for the expression control
Experimental: (§1) Various isolated antibodies were assessed for the ability to bind ALK1 from mouse (murine), human, and cyno monkey. Flow cytometry was used to measure fluorescence intensity produced by fluorescent-labeled secondary antibodies detecting primary anti-ALK1 antibodies that bind to specific cell-associated ALK1 molecules. More precisely hybridoma supernatants containing primary antibodies were tested for binding to transiently transfected cells expressing ALK1 of human, cyno monkey and mouse by flow cytometry. The signals were generated by use of secondary, PE-labelled goat anti-rat antibodies. In addition to testing the supernatants on non-transfected cells, ALK1 of human, cyno monkey and mouse-transfected cells were incubated only with the secondary antibody (without supernatants) as a negative control.

[2] = biological target: T2, murine ALK1, N-terminally tagged, on transiently transfected cells (mouse, UniProt Q61288 23-502); test: as above
T2 construct: whole, on cells; also called mouse ALK1; murine orthologue; not shown: N-terminal tag used for the expression control
T2 sequence (looked up): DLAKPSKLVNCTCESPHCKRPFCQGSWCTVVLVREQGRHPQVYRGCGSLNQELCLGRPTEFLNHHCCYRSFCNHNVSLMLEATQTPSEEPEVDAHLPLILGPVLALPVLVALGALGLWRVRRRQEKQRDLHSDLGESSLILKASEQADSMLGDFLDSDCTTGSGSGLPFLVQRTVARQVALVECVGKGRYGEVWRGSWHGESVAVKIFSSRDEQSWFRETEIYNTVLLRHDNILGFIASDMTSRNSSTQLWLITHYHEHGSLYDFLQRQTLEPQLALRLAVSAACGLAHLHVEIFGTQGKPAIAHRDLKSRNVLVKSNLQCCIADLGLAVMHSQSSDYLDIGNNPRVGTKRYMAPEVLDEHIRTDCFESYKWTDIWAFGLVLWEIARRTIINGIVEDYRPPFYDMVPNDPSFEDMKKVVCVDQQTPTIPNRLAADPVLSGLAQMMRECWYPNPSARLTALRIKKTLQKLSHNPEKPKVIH
Experimental: as §1

[3] = biological target: T3, human ALK5 on transiently transfected cells (human, UniProt P36897 34-503); test: flow cytometry, hybridoma supernatant on transiently transfected cells (Example 3)
T3 construct: whole, on cells; also called ALK5 of human
T3 sequence (looked up): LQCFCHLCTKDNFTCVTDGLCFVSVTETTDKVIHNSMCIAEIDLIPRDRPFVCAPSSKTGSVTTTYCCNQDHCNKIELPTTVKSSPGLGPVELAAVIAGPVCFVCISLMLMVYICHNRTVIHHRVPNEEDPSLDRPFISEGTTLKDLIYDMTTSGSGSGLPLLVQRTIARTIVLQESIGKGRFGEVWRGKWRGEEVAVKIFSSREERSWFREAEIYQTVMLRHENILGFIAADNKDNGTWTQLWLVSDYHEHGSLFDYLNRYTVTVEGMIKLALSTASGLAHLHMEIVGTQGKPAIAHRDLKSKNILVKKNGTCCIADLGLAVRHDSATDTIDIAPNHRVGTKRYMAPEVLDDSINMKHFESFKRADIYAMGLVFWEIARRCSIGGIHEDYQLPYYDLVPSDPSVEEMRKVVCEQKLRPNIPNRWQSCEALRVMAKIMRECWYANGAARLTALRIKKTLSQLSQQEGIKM
Experimental: as §1, with “Flow” for “Various isolated antibodies were assessed for the ability to bind ALK1 from mouse (murine), human, and cyno monkey. Flow”, “cell-associated ALK5” for “cell-associated ALK1”, “expressing ALK5” for “expressing ALK1”, “of human” for “of human, cyno monkey”, “cells, ALK5” for “cells, ALK1”

T1 sequence (P37023 22-503): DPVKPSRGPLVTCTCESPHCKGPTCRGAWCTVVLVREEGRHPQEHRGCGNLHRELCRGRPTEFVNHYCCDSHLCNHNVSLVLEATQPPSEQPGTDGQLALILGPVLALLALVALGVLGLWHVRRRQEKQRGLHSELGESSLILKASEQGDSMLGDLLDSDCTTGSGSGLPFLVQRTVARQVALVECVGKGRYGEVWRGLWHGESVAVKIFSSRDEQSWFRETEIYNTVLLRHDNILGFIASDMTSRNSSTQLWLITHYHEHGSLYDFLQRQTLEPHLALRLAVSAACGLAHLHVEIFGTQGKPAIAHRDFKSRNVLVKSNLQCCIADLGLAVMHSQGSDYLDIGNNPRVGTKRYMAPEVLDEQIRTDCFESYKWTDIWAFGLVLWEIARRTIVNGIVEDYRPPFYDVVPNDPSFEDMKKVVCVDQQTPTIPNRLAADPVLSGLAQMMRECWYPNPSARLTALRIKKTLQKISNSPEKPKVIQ

Row | Binder | binding result [1] | binding result [2] | binding result [3]
1 | B1 | binds | binds | no binding
2 | B2 | binds | binds | no binding
